PMC3693442 (Science (New York, N.Y.), 2013)

Molecular target: KLC2^TPR (tetratricopeptide repeat domain of kinesin light chain 2), wild type (UniProt O88448 217-426)
Assay: fluorescence polarisation

Binder	Kd [µM]
TNLEWDDSAI [SKIP^WD peptide (ten amino acid long peptide centered on the WD motif of SKIP)]	24
PSTDWEDGDL [SKIP^WE peptide (equivalent peptide centered on the WE motif of SKIP)]	> 110
